Target: YTHDC1 YTH domain (UniProt Q96MU7 345-509)
Experiment: MST

Row | Binder | Kd [µM]
1 | AAAGGACGUGG (ssRNA) [probe 2] | 16.9
2 | AAAGGACGUGG (ssRNA, m6A at position 6) [probe 1] | 0.39
